Laboratory results reported in patent publication US20230212587A1, “Mutant Hydroxyphenylpyruvate Dioxygenase Polypeptide, Encoding Gene Thereof and Use Therefor” (Beijing Dabeinong Biotechnology Co., Ltd., priority 2019, published 2023).
Numbering of substitutions follows the chain as printed. Names may count otherwise.

B1: S1HPPD-02: native Solanum lycopersicum HPPD, SEQ ID NO: 129 (protein)
chain: MGKQAAAAADDQQLPGDIEDKFKLVGFNHFVRTNPRSDFFTVKRFHHIEFWCGDATNTARRFSWGLGLPIAAISDLSTGNSVHASYLLRSSSSSQLQFLFTAPYSSAISTSSSASIPTFSVSSHRSFTATHGLGVRAIALEVENSRLAFSTCVAHGAKPVSEPVILNDEVVIAEVHLYGDVVLRFVSFLKDSNCFVFLPGFESVEGAQLDYGIRRLDHAVGNVPELGPVVEYIKSFTGFHEFAEFTAEDVGTAESGLNSVVLANNDETVLFPLNEPVYGTKRKSQIQTYLEHNEGAGVQHLALVTEDIFRTLREMRKRSGIGGFEFMPSPPPTYYKNLKTRAGDILSDEQIQECEELGILVDRDDQGTLLQIFTKPVGDRPTIFLEIIQRIGCMLKNEEGELYQKGGCGGFGKGNFSELFKSIEEYEKTLEAKQNTQVAIA
modifications: SlHPPD Amino Acid Sequence (Solanum lycopersicum)
B2: S1HPPDm-F372A-02: Solanum lycopersicum HPPD mutant F372A, SEQ ID NO: 132 (protein)
chain: B1 chain with F373A
modifications: SlHPPDm-F372A Amino Acid Sequence
B3: AhHPPD-02: native Arachis hypogaea HPPD, SEQ ID NO: 135 (protein, listed as Arachis hypogaea)
chain: MATAYTYAHAVTYCNSQHNPPIIPILSTNQHPPRVTLPSSIPHFISTITTFNLKHFPSHSLHTVMVTQTQQNAPSSSPELGFKLVGFKNFVRTNPKSDRFKVIRFHHVEFWCTDATNTASRFSWGLGMPIVAKSDLSTGNAVHASYLLRSGDLNFLFSAPYSASIAGDGASASFPSFSASDCHSFAAKHGLAVRAVAIEVEDASAAFSASVANGAKPVSPAVLLDNSVGFAEVHLYGDVVLRYISYSAPTRESNLNPTLRFLPGFEAVEADSSFPELDYGIRRLDHAVGNVPELAPAVNYLKKFTGFHEFAEFTAEDVGTSESGLNSVVLASNDEMVLLPLNEPVYGTKRKSQIETYLEHNEGAGLQHLALVSEDIFRTLREMRKRSTIGGFQFMPSPPPTYYRNLKKRAGDVLSDEQIKECEELGILVDRDDQGTLLQIFTKPVGDRPTIFIEIIQRIGCMLKDEEGKVYQKGGCGGFGKGNFSELFKSIEEYEKTLESRRTA
modifications: AhHPPD Amino Acid Sequence

These molecules were tested on Arabidopsis thaliana T1 plants (assay: Topramezone tolerance of transgenic Arabidopsis thaliana T1 plants (pesticide damage grade by bleached leaf area, score, resistance evaluation)). Settings: HPPDs from different species; number of plants (of 16) in this grade; topramezone 25 g ai/ha (1x), 7 DAT.
Format: in vivo
How it was run: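 Herbicide tolerance was judged per plant on a bleaching scale (grade 0 no bleaching to grade 3 fully bleached) 7 DAT. Topramezone doses were 0, 25, 50 and 100 g ai/ha on 18-day-old T1 and wild-type plants.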
In the case of B1, the “Classification and statistics of pesticide damage grade Grade 0” value is reported as 0, the “Classification and statistics of pesticide damage grade Grade 1” value is reported as 0 and the “Classification and statistics of pesticide damage grade Grade 2” value is reported as 0. The “Classification and statistics of pesticide damage grade Grade 3” value was 16.
With B2 the “Classification and statistics of pesticide damage grade Grade 0” value was 1, the “Classification and statistics of pesticide damage grade Grade 1” value was 1 and the “Classification and statistics of pesticide damage grade Grade 2” value was 14. For the same molecule, the “Classification and statistics of pesticide damage grade Grade 3” value was 0.
In the case of B3, the “Classification and statistics of pesticide damage grade Grade 0” value is reported as 0, the “Classification and statistics of pesticide damage grade Grade 1” value is reported as 0 and the “Classification and statistics of pesticide damage grade Grade 2” value is reported as 0. For the same molecule, the “Classification and statistics of pesticide damage grade Grade 3” value was 16.

Same assay, conditions: HPPDs from different species; number of plants (of 16) in this grade; topramezone 100 g ai/ha (4x), 7 DAT
B1 was tested, and the “Classification and statistics of pesticide damage grade Grade 0” value was 0, the “Classification and statistics of pesticide damage grade Grade 1” value was 0 and the “Classification and statistics of pesticide damage grade Grade 2” value was 0. For the same molecule, the “Classification and statistics of pesticide damage grade Grade 3” value was 16.
With B2 the “Classification and statistics of pesticide damage grade Grade 0” value was 0, the “Classification and statistics of pesticide damage grade Grade 1” value was 1 and the “Classification and statistics of pesticide damage grade Grade 2” value was 4. For the same molecule, the “Classification and statistics of pesticide damage grade Grade 3” value was 11.
For B3, the “Classification and statistics of pesticide damage grade Grade 0” value was 0, the “Classification and statistics of pesticide damage grade Grade 1” value was 0 and the “Classification and statistics of pesticide damage grade Grade 2” value was 0. The “Classification and statistics of pesticide damage grade Grade 3” value was 16.

Same assay, conditions: HPPDs from different species; score for pesticide damage 0-100; topramezone 25 g ai/ha (1x), 7 DAT
B1 gave a Scores of 100.
Work on B2 yielded a Scores of 60.
With B3 the Scores was 100.

Same assay, conditions: HPPDs from different species; score for pesticide damage 0-100; topramezone 100 g ai/ha (4x), 7 DAT
Work on B1 yielded a Scores of 100.
For B2, the Scores was 88.
Molecule B3 has a Scores of 100.

Same assay, conditions: HPPDs from different species; topramezone 25 g ai/ha (1x), 7 DAT
With B1 the Resistance evaluation was “non-resistant (non-resistant plants (scores 68-100))”.
For B2, the Resistance evaluation was “poorly resistant (poorly resistant plants (scores 34-67))”.
For B3, the Resistance evaluation was “non-resistant (non-resistant plants (scores 68-100))”.

Same assay, conditions: HPPDs from different species; topramezone 100 g ai/ha (4x), 7 DAT
In the case of B1, the Resistance evaluation is reported as “non-resistant (non-resistant plants (scores 68-100))”.
In the case of B2, the Resistance evaluation is reported as “non-resistant (non-resistant plants (scores 68-100))”.
B3 was tested, and the Resistance evaluation was “non-resistant (non-resistant plants (scores 68-100))”.
